The results in this text go back to the nanobody polyreactivity screen of Harvey et al. (2022).

This data set is described as follows: yeast display, Sf9 membrane polyspecificity reagent, FACS + sequencing; frameworks hold sequencing errors. A digest of the protocol:
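After 36–48 hours of galactose induction, yeast (Saccharomyces cerevisiae BJ5465) displaying a synthetic nanobody library were stained at 4 °C for 1 hour with 10% biotinylated, detergent-solubilized Sf9 membrane reagent. Streptavidin microbeads enriched the stained cells before FACS sorting into low and high (top ~1%) gates on anti-HA and streptavidin fluorescence. Each clone's polyreactivity label reflects its gate of origin.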
For “QVQLVESGGGLVQPGGSLRLSCAASGIIFRYYAMGWYRQAPGKERELVAAITWSGGSTYYADSVKGRFTISRDNAKNTVYLQMNRLKPEDTAVFDCAADWWSVRGYAVDYWGQGTQVTVSS”, the “polyreactivity (PSR sort gate)” value is listed as “high polyreactivity”.

“QVQLVESGGGLVQPGGSLRLSCAASGRIFGYYVMGWYRQAPRKERELVAAITGGGGSTYYADSVKGRFTISRDNEKNTVFLQMNSLKPEDTAVYYCAADLEYTNYDYDYWGQGTQVTVSS”: the “polyreactivity (PSR sort gate)” value is reported as “high polyreactivity”.

As to “QVQLVESGGGLVQPGGSLRLSCAASGRNSTYTMGWYRQAPGKERELVATISTDASTNYADSVKGRFTISRDNAKNTVYLQMNSLKPEDTAVYYCAAVIVNQDYDYWGQGTQVTVSS”, the “polyreactivity (PSR sort gate)” value was “low polyreactivity”.

As to “QVQLVESGGGLVQPGGSLRLSCAASGRTFRWYAMGWYRQEPGKERELVAAISAGGGSTYYADSVKGRFTISRDNAKYTVSLQLTRVKPEDTAVYYCNRVAWNYGFGSSAYGYWGQGTQVTVSS”, the “polyreactivity (PSR sort gate)” value was “high polyreactivity”.

“QVQLVESGGGLVQPGGSLRLSCAASGSIFAYNAMGWSRQAPGKERELVAAISSGGRTKYADSVKGRFTITRDNAKITVYFQMNRQKPEDTAVYYCAAESYTGKYSWVWKWYDYWGQGTQVSVSS”: the “polyreactivity (PSR sort gate)” value was “low polyreactivity”.

Regarding “QVQLVESGGGLVQPGGSLRLSCAASGSIFPRNAMGWYRKAPGKERELVAGISYGGSTTYYADSVKGRFTISRDNAKNTVYLQMNSLKPEDTAVYYCAALQQYRRQTTYSSQLYYWGQGTQVTVSS”, the “polyreactivity (PSR sort gate)” value is recorded as “high polyreactivity”.

Take “QVQLVESGGGLVQPGGSLRLSCAASGSTFEYNAMGWYRQAPGKERELVASSTNYADSVKGRFTISRDNAKNTVYLQMNSLKPEDTAVYYCAREQGVNRNHDYWGQGTQVTVSS”: the “polyreactivity (PSR sort gate)” value is given as “low polyreactivity”.

For “QVQLVESGGGLVQPGGSLRLSCAASGYTFWQYAMGWYRQAPGKERELVAAISGSGGRTYYADSVKGRFTISRDNAKNTVYLQMNSLKPEDTAVYYCAAPYLRYYLGWYDYWGQGTQVTVSS”, the “polyreactivity (PSR sort gate)” value was “high polyreactivity”.

Turning to “QVQLVESGGGLVQSGASLRLSCAASGSIFDSYTMGWYRQAPGKEREWVAAISWSGGRTYYADSVKGRFTISRDNAKNTVYLQMNTLKPEDTAVYYCAARNVWKYLFGYDYWGQGTQVTVSS”, the “polyreactivity (PSR sort gate)” value is reported as “high polyreactivity”.

For “QVQLVESGGGLVQSGGSLRLSCAASGFIFLNYAMGWYRQAPGKERQLVAAITSGGNTTYADSVKGRFTISRDNAKNTVYLQMNSLKPEDTAVYYCAAEWASRYAVFWAYPKYDYWGQGTQVTVAS”, the “polyreactivity (PSR sort gate)” value is “low polyreactivity”.

Regarding “QVQLVESGGGLVQSGGSLRLSCAASGFTFSRYAMGWYRQAPGKERELVAAIRLRDGITYYADSVKVRFTISRDNAKNTVYLQMNSLKPEDTAVYYFNAVNRTPVSQLDYWGQGTQVTVSS”, the “polyreactivity (PSR sort gate)” value is reported as “high polyreactivity”.

Turning to “QVQLVESGGGLVQSGGSLRLSCAASGIIFCRYAMGWYRQAPGKERELVATITWRGGSTYDADSVKGRFTISRDNAKNTVYLQMNSLKPEDTAVYYCAADNRQSRSFRARAYWGQGNQVTVSS”, the “polyreactivity (PSR sort gate)” value was “low polyreactivity”.

On to “QVQLVESGGGLVQSGGSLRLSCAASGLIFGRYAMGWYRQAPGKERELVAAISYSGARTYYADSVKGRFTISRDNEKNTVYLQMNSLKPEDTAVYYCAAGPAFRQSEWWKAYDYWGQGTQVTVSS”, for which the “polyreactivity (PSR sort gate)” value was “high polyreactivity”.

Take “QVQLVESGGGLVQSGGSLRLSCAASGLIFYDNMGWYIQAPGKERELVAAISSSGGSTSYADSVKGRFTISRDNAKNTVYLQMNSLKPEDTAVYYCAADSYPAYLGFVGFDYWGQGTQVTVSS”: the “polyreactivity (PSR sort gate)” value was “low polyreactivity”.

As for “QVQLVESGGGLVQSGGSLRLSCAASGNTFTFYAMGWYRQAPGKERELVAVISQIADGCTYYADSVKGRFTISRDNSKNSVYLQMNSLKPEDTAVYYCIAQTWDEYWGQGTQVTVSS”, the “polyreactivity (PSR sort gate)” value is recorded as “low polyreactivity”.

Regarding “QVQLVESGGGLVQSGGSLRLSCAASGRTFSKNAMGWYRQAPGKERELVAAISGSGGSTYYADSVKGRFTISRDNAKNTVYLQMNSLKPEDTAVYYCADRYTVRRSGYWGQGTQVTVSS”, the “polyreactivity (PSR sort gate)” value is on record as “high polyreactivity”.

Take “QVQLVESGGGLVQSGGSLRLSCAASGSIFNLYAMGWYRQAPGKERELVAAINWSGGSTYYADSVNGRFTISRDNAKNTVYLQMNRLKPEDTAVSYCAADAYSTYYGYEGVYWGQGTQVTVSS”: the “polyreactivity (PSR sort gate)” value is “low polyreactivity”.

Regarding “QVQLVESGGGLVQSGGSLRLSCAASGSINVYYAMGLYRQEPGKERDLVAAISASGGSTYYADSVKGRFTISRDNAKNTFYLQMKSLKPEDTAVYYCAADTFYSYYDMDYWGQGTQVTVSS”, the “polyreactivity (PSR sort gate)” value is listed as “low polyreactivity”.

For the sequence “QVQLVESGGGLVQSGGSLRLSCAASGSNFITYAMGWYRQAPGKERELVAAIRDSGDRTYYADSVKGRFTISRDNAKNTVYLQMNSLKPEDTAVYYCNARWQEPLKYDYWGQGTQVTVSS”, the “polyreactivity (PSR sort gate)” value is on record as “low polyreactivity”.

In the case of “QVQLVESGGGLVQSGGSLRLSCAASGSTFVSNAMGWYRQAPGKERELFAAINGSGGITYYADSVKGRFTISRDNAKNTVYLQMNSLKPEDTAVYYCAAEYDGPYTWVDYYYHYGYWGQGTEVTVSS”, the “polyreactivity (PSR sort gate)” value is listed as “low polyreactivity”.

In the case of “QVQLVESGGGLVQSGGSLRLSCAASGSTSTSYVMGWYRQAPGKERELVAVITLRSGVTYYADSVKARFTISRDNPKYTVYLQMNSLKAEDTAVYYCNAATVVYTRVWRGYWGQGTHVTVSS”, the “polyreactivity (PSR sort gate)” value was “low polyreactivity”.

Consider “QVQLVESGGGLVQSGGSLRLSCAASVIIFAWYAMGWYRQAPGKERELVAAITANSDSTYYADSVKGRFTISRDNAKNTVYLQMNSLKPEDTAVYDCAKRTYSRKFRGAYNYWGQGTQVTVSS”, for which the “polyreactivity (PSR sort gate)” value was “high polyreactivity”.

As for “QVQLVESGGGLVQSGGSLRLSCADSVRTFNYYAMGWYRQAPGKERELVATISWSGVSTRYADSVKGRFTISRDNEKNTVYLQMNSLKPEDTAVYYCNAGYSKRSFYSAYGYWGQGTQVTVSS”, the “polyreactivity (PSR sort gate)” value is listed as “high polyreactivity”.

For “QVQLVESGGGLVQSGGSLRLTCAASGYIFGYYTMGWYRQAPGKERELVATIRSGGSTYYADSVKGRFTISRDNAKNTVFLHMNSLKAEDTAVYYCAIRVRRISEYGYWGQGTQVTVSS”, the “polyreactivity (PSR sort gate)” value is listed as “high polyreactivity”.

Consider “QVQLVESGGGLVQSGRSLRLSCAASGSISVWYVMGWYRPAPGKEMELVAAITRSGGSTFYAYSVKGRFTISRDNAKNTVYLQMNSLKPEDTAVYYCAADGGVAWGYGYWGQGTQVTVSS”, for which the “polyreactivity (PSR sort gate)” value is reported as “low polyreactivity”.

Regarding “QVQLVESGGGLVQTGGILRLSCAASGRIFYYNAMGWYRQEPGKERDFFAAITSSSGSSTYYADSVKGRFTISLDNAKNTVYLQMNSLKPEVTAVYYCAAVGTFIIRYLSRSSYWGQGTQVTVSS”, the “polyreactivity (PSR sort gate)” value is “low polyreactivity”.

As for “QVQLVESGGGLVQTGGSLRLSCAASGRIFFDNAMGWYRQAPGKERELVAGIDSGGSTYYADSVKGRFTISRDNAKNTVYLQMNSLKPEDTAVYYCNSDYPPSTQSPLLQSYDYWGQGTQVTVSS”, the “polyreactivity (PSR sort gate)” value is recorded as “low polyreactivity”.

As to “QVQLVESGGGLVQVGGSLRLSCAASGFTFYDYAMGWYRQAPGKERELVAAMSRGGSTYYADSVKGRFTISRDNAKNTVYLQMNSLKPEDTAVYYCNARPTRIYHGMGYWGQGTQVTVSW”, the “polyreactivity (PSR sort gate)” value is “low polyreactivity”.

In the case of “QVQLVESGGGLVQVGGSLRLSCAASGGIFSGNAMGWYRQAPGKERELVAGITNCGRTSYADSVKGRFTISRDNAKNTDYFQMNSLKPEDTAVYYCNAKVGAYLNYGYWGQGTQVTVSS”, the “polyreactivity (PSR sort gate)” value was “low polyreactivity”.

“QVQLVESGGGLVQVGGSLRLSCAASGITLSYYAMGWYRQAPGKERELVASITVSRTSTYYADSVKGRFTISRDNAKNTVYLQMNSLKPEDTAVYYCAAYAYQYRFSGYGYWGQGTQVTVSS”: the “polyreactivity (PSR sort gate)” value is reported as “low polyreactivity”.

Regarding “QVQLVESGGGLVRAGGSLRLSCAASGSIFKYYAMGWYRQAPGKDRELVAAISWSGGSTFYADSVKGRFTISRDNAKNTVYLQMNSLKPEDTAVFYCARYKLRSGRSGDHDVYWGQGTQVTVSS”, the “polyreactivity (PSR sort gate)” value is “high polyreactivity”.

Turning to “QVQLVESGGGLVRAGGSLRLSCAASGSTFPFYAMGWYRQAPGKERELVAAITSGGSTYADSVKGRFTISRDNAKNTVYFQMNSLKAEVTAVYYCAASWPRWWRFGYWGQGTQVTVSS”, the “polyreactivity (PSR sort gate)” value is “low polyreactivity”.

With “QVQLVESGGGLYQAGGSLRLSCAASGIIFKSYLMGWDRQAPGKEREFVARITYRGGSTYYADSVKGRFTISRDNAKYTFNLQMNSLNQEDTAVYYCIARVRRRRYKYDYWGQGTQVTVST”, the “polyreactivity (PSR sort gate)” value is “high polyreactivity”.

As to “QVQLVESGGGLYQARGSLRLSCAASGSIFLDNAKGWYRQAPGKERELVAAISSGGNTNYADSVKGRFTISRDNAKNTVYLQINSLKPEDTAVYYCAADPTKWHYYLPRYYYWGQGTQVTLSS”, the “polyreactivity (PSR sort gate)” value is “low polyreactivity”.

On to “QVQLVESGGGRVQAGGSLRLSCAASGITFDANAMGWDRQAPGKERELVARISSGGSTNYADSVKGRFTISRDNAKNTVYLQMNSLKPEDTAVYYCAKSYQYGFDYWGQGTQVNVSS”, for which the “polyreactivity (PSR sort gate)” value is listed as “low polyreactivity”.

For the sequence “QVQLVESGGGRVQAGGSLRLSCAASGSIFFIYAMGWDRQAPSKEREFVAAISYGGGSTYYADSVKGRFTISRDNAKNTVYLQMNSLKPEDTAVYYCNADVPKSLLLYYPWGYGYWGQGTQVNVSS”, the “polyreactivity (PSR sort gate)” value is “low polyreactivity”.

Turning to “QVQLVESGGGSVQAGGSLRLSCAASGFTIRTYAMGWYRQAPGKERELVAAITSSGSSTYYAYSVKGRFTISRDNAKNTVYLQMNSLKPEDTAVYYCAADAPRSYRFGYWGQGTQVTVSA”, the “polyreactivity (PSR sort gate)” value is on record as “high polyreactivity”.

Turning to “QVQLVESGGGVVQAGGSLRISCAATGFIFRWYAMGWYIQAPGKERELVASINWSGSRTNYADPVKGRFTISRDNAKNTVYLQMNSLKPEDTAVYYCATYGTTSGYDSWGQGTQVTVSS”, the “polyreactivity (PSR sort gate)” value is given as “high polyreactivity”.

“QVQLVESGGGVVQAGGSLRLSCAASGFIFHQNAMGWYRPAPGKERELVAAITRSGTSTYYADSVKGRFTISRDYAKNTVYLQMYSLKPEDTAVYYCANDPVRVGRFGYEYWGQGTQVTVSS”: the “polyreactivity (PSR sort gate)” value is recorded as “low polyreactivity”.

For the sequence “QVQLVESGGGVVQAGGSLRLSCAASGFIFPLYTMGWSRQAPGKERELVAAITGSGGSTYYADSVKGRFTISRDNAKNTVYLQMNSLKPEDTAVYYCAKDYTYGMDWGQGTQVTVSS”, the “polyreactivity (PSR sort gate)” value is on record as “low polyreactivity”.

Take “QVQLVESGGGVVQAGGSLRLSCAASGFIFYYNTMGWYRQAPGKERELVASMTWSGDTTYYADSVKGRFTISRDNAKNTVYLQMNSLTPEDTAVYYCAAVHYDPYRRYDYWGQGTQVTVSS”: the “polyreactivity (PSR sort gate)” value is given as “low polyreactivity”.
